Experimental data: US9644017B2, “Insulin derivatives having an extremely delayed time-action profile” (Sanofi-Aventis Deutschland GmbH, priority 2008, dated 2017)

Key:
[1] = cited from earlier work
[2] = tested on: healthy male normoglycemic Wistar rats; assay: Blood glucose-lowering effect of novel insulin analogues in rats; format: in vivo, rat; conditions: 9 nmol/kg s.c., n=8, up to eight hours, FIG. 1
Method: The blood glucose-lowering effect of selected novel insulin analogues is tested in healthy male normoglycemic Wistar rats. Male rats receive subcutaneous injection of a dose of 9 nmol/kg of an insulin analogue. Blood samples are taken from the animals immediately before the injection of the insulin analogue and at regular intervals up to eight hours after the injection, and the blood glucose content therein is determined.

Substance	calculated pI ([1]; calculated)	experimentally determined pI ([1]; experimentally determined)	hypoglycemic effect / time-action profile in rats [2]
Arg (A0), Gly (A21), Arg (B31), Arg (B32) human insulin [Compound 18 from Kohn et al.]	7.58	7.3	–
Gly (A21), Arg (B31), Arg (B32) human insulin [insulin glargine]	–	–	delayed action of insulin glargine cannot by contrast be unambiguously observed in rats
